Experimental data as given in patent publication US20220242939A1.
Non-standard residues stand in square brackets, D forms with d. No end group written: not given here. Ahx = NCCCCCC(=O)O

Legend:
[1] = molecular target: 4E6, recombinant IgG2c antibody; assay: inhibition ELISA: antigen in solution varied, antibody 4E6 at 0.05 µg/ml, plate coated with G200-BSA peptide
[2] = molecular target: 4E6, recombinant IgG2c antibody; assay: inhibition ELISA 2nd protocol: antigen in solution varied, antibody 4E6, plate coated with G200-BSA peptide

4E6, recombinant IgG2c antibody, sequence (VH, as listed by the source limits assumed, chain 1 of 2): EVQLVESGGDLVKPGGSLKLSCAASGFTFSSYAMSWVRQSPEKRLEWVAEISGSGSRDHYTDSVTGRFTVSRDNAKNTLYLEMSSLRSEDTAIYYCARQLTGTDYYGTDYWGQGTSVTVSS
4E6, recombinant IgG2c antibody, sequence (VL, as listed by the source limits assumed, chain 2 of 2): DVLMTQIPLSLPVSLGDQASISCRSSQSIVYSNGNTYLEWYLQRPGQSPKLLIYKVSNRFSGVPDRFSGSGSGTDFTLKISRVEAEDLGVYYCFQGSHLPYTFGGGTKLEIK

B1: G200 N-terminal neo-epitope peptide GQPLQE-Acp-C (SEQ ID NO:50) conjugated to BSA (peptide)
peptide: GQPLQE[Ahx]C
modifications: not fully specified (residue 8); printed as GQPLQE-Acp-C; also: C-terminal Cys conjugated to BSA carrier
Binder B1 has an IC50 [1] of 2.9 ng/mL and an IC50 [2] of 11.5 ng/mL.
